Results reported in patent US12099068B2, “Biomarkers for graft-versus-host disease” (Incyte Corporation, priority 2018, dated 2024).

System: plasma proteins
Test: Plasma proteins modulated between baseline and day 28 in responders (CR, VGPR, PR; n = 19), Example 6 (Table 13)
Format: in vivo, human
Settings: plasma protein (OLINK NPX); responders (CR, VGPR, PR; n = 19); itacitinib 200 mg or 300 mg QD with corticosteroids; day 28 vs baseline
In short: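 Plasma at baseline/screening and day 28 profiled for >1000 proteins by OLINK proximity extension assay, reported as NPX (log2). Steroid-naive and steroid-refractory patients pooled. Paired and unpaired t tests, ANOVA and Pearson correlation applied; significance at P<0.05.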

| Molecule | Fold Change, Decreased Expression from Baseline to Day 28 | Fold Change, Increased Expression from Baseline to Day 28 |
| --- | --- | --- |
| NUB1 (protein, UniProt Q9Y5A7 1-615, looked up) NEDD8 ultimate buster 1: MAQKKYLQAKLTQFLREDRIQLWKPPYTDENKKVGLALKDLAKQYSDRLECCENEVEKVIEEIRCKAIERGTGNDNYRTTGIATIEVFLPPRLKKDRKNLLETRLHITGRELRSKIAETFGLQENYIKIVINKKQLQLGKTLEEQGVAHNVKAMVLELKQSEEDARKNFQLEEEEQNEAKLKEKQIQRTKRGLEILAKRAAETVVDPEMTPYLDIANQTGRSIRIPPSERKALMLAMGYHEKGRAFLKRKEYGIALPCLLDADKYFCECCRELLDTVDNYAVLQLDIVWCYFRLEQLECLDDAEKKLNLAQKCFKNCYGENHQRLVHIKGNCGKEKVLFLRLYLLQGIRNYHSGNDVEAYEYLNKARQLFKELYIDPSKVDNLLQLGFTAQEARLGLRACDGNVDHAATHITNRREELAQIRKEEKEKKRRRLENIRFLKGMGYSTHAAQQVLHAASGNLDEALKILLSNPQMWWLNDSNPETDNRQESPSQENIDRLVYMGFDALVAEAALRVFRGNVQLAAQTLAHNGGSLPPELPLSPEDSLSPPATSPSDSAGTSSASTDEDMETEAVNEILEDIPEHEEDYLDSTLEDEEIIIAEYLSYVENRKSATKKN | −1.4966 |  |
| KLK10 (protein, UniProt O43240 31-276, looked up) Kallikrein-10: AEAALLPQNDTRLDPEAYGSPCARGSQPWQVSLFNGLSFHCAGVLVDQSWVLTAAHCGNKPLWARVGDDHLLLLQGEQLRRTTRSVVHPKYHQGSGPILPRRTDEHDLMLLKLARPVVLGPRVRALQLPYRCAQPGDQCQVAGWGTTAARRVKYNKGLTCSSITILSPKECEVFYPGVVTNNMICAGLDRGQDPCQSDSGGPLVCDETLQGILSWGVYPCGSAQHPAVYTQICKYMSWINKVIRSN |  | 1.2102 |
| FAM3C (protein, UniProt Q92520 25-227, looked up) Protein FAM3C: QVFEIKMDASLGNLFARSALDTAARSTKPPRYKCGISKACPEKHFAFKMASGAANVVGPKICLEDNVLMSGVKNNVGRGINVALANGKTGEVLDTKYFDMWGGDVAPFIEFLKAIQDGTIVLMGTYDDGATKLNDEARRLIADLGSTSITNLGFRDNWVFCGGKGIKTKSPFEQHIKNNKDTNKYEGWPEVVEMEGCIPQKQD |  | 1.3109 |
| STAMPB (protein, UniProt O95630 1-424, looked up) STAM-binding protein: MSDHGDVSLPPEDRVRALSQLGSAVEVNEDIPPRRYFRSGVEIIRMASIYSEEGNIEHAFILYNKYITLFIEKLPKHRDYKSAVIPEKKDTVKKLKEIAFPKAEELKAELLKRYTKEYTEYNEEKKKEAEELARNMAIQQELEKEKQRVAQQKQQQLEQEQFHAFEEMIRNQELEKERLKIVQEFGKVDPGLGGPLVPDLEKPSLDVFPTLTVSSIQPSDCHTTVRPAKPPVVDRSLKPGALSNSESIPTIDGLRHVVVPGRLCPQFLQLASANTARGVETCGILCGKLMRNEFTITHVLIPKQSAGSDYCNTENEEELFLIQDQQGLITLGWIHTHPTQTAFLSSVDLHTHCSYQMMLPESVAIVCSPKFQETGFFKLTDHGLEEISSCRQKGFHPHSKDPPLFCSCSHVTVVDRAVTITDLR | −1.3721 |  |
| TIGAR (protein, UniProt Q9NQ88 1-270, looked up) Fructose-2,6-bisphosphatase …: MARFALTVVRHGETRFNKEKIIQGQGVDEPLSETGFKQAAAAGIFLNNVKFTHAFSSDLMRTKQTMHGILERSKFCKDMTVKYDSRLRERKYGVVEGKALSELRAMAKAAREECPVFTPPGGETLDQVKMRGIDFFEFLCQLILKEADQKEQFSQGSPSNCLETSLAEIFPLGKNHSSKVNSDSGIPGLAASVLVVSHGAYMRSLFDYFLTDLKCSLPATLSRSELMSVTPNTGMSLFIINFEEGREVKPTVQCICMNLQDHLNGLTETR | −1.3733 |  |
| AGR2 (protein, UniProt O95994 21-175, looked up) Anterior gradient protein 2 …: RDTTVKPGAKKDTKDSRPKLPQTLSRGWGDQLIWTQTYEEALYKSKTSNKPLMIIHHLDECPHSQALKKVFAENKEIQKLAEQFVLLNLVYETTDKHLSPDGQYVPRIMFVDPSLTVRADITGRYSNRLYAYEPADTALLLDNMKKALKLLKTEL |  | 1.4472 |
| MIF (protein, UniProt P14174 2-115, looked up) Macrophage migration …: PMFIVNTNVPRASVPDGFLSELTQQLAQATGKPPQYIAVHVVPDQLMAFGGSSEPCALCSLHSIGKIGGAQNRSYSKLLCGLLAERLRISPDRVYINYYDMNAANVGWNNSTFA | −1.7486 |  |
| LAT2 (protein, UniProt Q9GZY6 1-243, looked up) Linker for activation of …: MSSGTELLWPGAALLVLLGVAASLCVRCSRPGAKRSEKIYQQRSLREDQQSFTGSRTYSLVGQAWPGPLADMAPTRKDKLLQFYPSLEDPASSRYQNFSKGSRHGSEEAYIDPIAMEYYNWGRFSKPPEDDDANSYENVLICKQKTTETGAQQEGIGGLCRGDLSLSLALKTGPTSGLCPSASPEEDEESEDYQNSASIHQWRESRKVMGQLQREASPGPVGSPDEEDGEPDYVNGEVAATEA | −1.7755 |  |
| SNAP23 (protein, UniProt O00161 1-211, looked up) Synaptosomal-associated …: MDNLSSEEIQQRAHQITDESLESTRRILGLAIESQDAGIKTITMLDEQKEQLNRIEEGLDQINKDMRETEKTLTELNKCCGLCVCPCNRTKNFESGKAYKTTWGDGGENSPCNVVSKQPGPVTNGQLQQPTTGAASGGYIKRITNDAREDEMEENLTQVGSILGNLKDMALNIGNEIDAQNPQIKRITDKADTNRDRIDIANARAKKLIDS | −1.5751 |  |
